Among the data in PMC3283708 are percent increase in the frequency of spontaneous Ca^2+ waves in permeabilised rat cardiac myocytes with 3 µM FKBP12 and percent increase in the frequency of spontaneous Ca^2+ waves in permeabilised rat cardiac myocytes with 3 µM FKBP12, after pre-incubation with and in the continued presence of 200 nM FKBP12.6 values, retold here.

This test deals with rat cardiac ryanodine receptor (RyR2) (rat (endogenous in rat ventricular myocytes)) (UniProt B0LPN4).
Chain of UniProt B0LPN4 (B0LPN4 whole entry): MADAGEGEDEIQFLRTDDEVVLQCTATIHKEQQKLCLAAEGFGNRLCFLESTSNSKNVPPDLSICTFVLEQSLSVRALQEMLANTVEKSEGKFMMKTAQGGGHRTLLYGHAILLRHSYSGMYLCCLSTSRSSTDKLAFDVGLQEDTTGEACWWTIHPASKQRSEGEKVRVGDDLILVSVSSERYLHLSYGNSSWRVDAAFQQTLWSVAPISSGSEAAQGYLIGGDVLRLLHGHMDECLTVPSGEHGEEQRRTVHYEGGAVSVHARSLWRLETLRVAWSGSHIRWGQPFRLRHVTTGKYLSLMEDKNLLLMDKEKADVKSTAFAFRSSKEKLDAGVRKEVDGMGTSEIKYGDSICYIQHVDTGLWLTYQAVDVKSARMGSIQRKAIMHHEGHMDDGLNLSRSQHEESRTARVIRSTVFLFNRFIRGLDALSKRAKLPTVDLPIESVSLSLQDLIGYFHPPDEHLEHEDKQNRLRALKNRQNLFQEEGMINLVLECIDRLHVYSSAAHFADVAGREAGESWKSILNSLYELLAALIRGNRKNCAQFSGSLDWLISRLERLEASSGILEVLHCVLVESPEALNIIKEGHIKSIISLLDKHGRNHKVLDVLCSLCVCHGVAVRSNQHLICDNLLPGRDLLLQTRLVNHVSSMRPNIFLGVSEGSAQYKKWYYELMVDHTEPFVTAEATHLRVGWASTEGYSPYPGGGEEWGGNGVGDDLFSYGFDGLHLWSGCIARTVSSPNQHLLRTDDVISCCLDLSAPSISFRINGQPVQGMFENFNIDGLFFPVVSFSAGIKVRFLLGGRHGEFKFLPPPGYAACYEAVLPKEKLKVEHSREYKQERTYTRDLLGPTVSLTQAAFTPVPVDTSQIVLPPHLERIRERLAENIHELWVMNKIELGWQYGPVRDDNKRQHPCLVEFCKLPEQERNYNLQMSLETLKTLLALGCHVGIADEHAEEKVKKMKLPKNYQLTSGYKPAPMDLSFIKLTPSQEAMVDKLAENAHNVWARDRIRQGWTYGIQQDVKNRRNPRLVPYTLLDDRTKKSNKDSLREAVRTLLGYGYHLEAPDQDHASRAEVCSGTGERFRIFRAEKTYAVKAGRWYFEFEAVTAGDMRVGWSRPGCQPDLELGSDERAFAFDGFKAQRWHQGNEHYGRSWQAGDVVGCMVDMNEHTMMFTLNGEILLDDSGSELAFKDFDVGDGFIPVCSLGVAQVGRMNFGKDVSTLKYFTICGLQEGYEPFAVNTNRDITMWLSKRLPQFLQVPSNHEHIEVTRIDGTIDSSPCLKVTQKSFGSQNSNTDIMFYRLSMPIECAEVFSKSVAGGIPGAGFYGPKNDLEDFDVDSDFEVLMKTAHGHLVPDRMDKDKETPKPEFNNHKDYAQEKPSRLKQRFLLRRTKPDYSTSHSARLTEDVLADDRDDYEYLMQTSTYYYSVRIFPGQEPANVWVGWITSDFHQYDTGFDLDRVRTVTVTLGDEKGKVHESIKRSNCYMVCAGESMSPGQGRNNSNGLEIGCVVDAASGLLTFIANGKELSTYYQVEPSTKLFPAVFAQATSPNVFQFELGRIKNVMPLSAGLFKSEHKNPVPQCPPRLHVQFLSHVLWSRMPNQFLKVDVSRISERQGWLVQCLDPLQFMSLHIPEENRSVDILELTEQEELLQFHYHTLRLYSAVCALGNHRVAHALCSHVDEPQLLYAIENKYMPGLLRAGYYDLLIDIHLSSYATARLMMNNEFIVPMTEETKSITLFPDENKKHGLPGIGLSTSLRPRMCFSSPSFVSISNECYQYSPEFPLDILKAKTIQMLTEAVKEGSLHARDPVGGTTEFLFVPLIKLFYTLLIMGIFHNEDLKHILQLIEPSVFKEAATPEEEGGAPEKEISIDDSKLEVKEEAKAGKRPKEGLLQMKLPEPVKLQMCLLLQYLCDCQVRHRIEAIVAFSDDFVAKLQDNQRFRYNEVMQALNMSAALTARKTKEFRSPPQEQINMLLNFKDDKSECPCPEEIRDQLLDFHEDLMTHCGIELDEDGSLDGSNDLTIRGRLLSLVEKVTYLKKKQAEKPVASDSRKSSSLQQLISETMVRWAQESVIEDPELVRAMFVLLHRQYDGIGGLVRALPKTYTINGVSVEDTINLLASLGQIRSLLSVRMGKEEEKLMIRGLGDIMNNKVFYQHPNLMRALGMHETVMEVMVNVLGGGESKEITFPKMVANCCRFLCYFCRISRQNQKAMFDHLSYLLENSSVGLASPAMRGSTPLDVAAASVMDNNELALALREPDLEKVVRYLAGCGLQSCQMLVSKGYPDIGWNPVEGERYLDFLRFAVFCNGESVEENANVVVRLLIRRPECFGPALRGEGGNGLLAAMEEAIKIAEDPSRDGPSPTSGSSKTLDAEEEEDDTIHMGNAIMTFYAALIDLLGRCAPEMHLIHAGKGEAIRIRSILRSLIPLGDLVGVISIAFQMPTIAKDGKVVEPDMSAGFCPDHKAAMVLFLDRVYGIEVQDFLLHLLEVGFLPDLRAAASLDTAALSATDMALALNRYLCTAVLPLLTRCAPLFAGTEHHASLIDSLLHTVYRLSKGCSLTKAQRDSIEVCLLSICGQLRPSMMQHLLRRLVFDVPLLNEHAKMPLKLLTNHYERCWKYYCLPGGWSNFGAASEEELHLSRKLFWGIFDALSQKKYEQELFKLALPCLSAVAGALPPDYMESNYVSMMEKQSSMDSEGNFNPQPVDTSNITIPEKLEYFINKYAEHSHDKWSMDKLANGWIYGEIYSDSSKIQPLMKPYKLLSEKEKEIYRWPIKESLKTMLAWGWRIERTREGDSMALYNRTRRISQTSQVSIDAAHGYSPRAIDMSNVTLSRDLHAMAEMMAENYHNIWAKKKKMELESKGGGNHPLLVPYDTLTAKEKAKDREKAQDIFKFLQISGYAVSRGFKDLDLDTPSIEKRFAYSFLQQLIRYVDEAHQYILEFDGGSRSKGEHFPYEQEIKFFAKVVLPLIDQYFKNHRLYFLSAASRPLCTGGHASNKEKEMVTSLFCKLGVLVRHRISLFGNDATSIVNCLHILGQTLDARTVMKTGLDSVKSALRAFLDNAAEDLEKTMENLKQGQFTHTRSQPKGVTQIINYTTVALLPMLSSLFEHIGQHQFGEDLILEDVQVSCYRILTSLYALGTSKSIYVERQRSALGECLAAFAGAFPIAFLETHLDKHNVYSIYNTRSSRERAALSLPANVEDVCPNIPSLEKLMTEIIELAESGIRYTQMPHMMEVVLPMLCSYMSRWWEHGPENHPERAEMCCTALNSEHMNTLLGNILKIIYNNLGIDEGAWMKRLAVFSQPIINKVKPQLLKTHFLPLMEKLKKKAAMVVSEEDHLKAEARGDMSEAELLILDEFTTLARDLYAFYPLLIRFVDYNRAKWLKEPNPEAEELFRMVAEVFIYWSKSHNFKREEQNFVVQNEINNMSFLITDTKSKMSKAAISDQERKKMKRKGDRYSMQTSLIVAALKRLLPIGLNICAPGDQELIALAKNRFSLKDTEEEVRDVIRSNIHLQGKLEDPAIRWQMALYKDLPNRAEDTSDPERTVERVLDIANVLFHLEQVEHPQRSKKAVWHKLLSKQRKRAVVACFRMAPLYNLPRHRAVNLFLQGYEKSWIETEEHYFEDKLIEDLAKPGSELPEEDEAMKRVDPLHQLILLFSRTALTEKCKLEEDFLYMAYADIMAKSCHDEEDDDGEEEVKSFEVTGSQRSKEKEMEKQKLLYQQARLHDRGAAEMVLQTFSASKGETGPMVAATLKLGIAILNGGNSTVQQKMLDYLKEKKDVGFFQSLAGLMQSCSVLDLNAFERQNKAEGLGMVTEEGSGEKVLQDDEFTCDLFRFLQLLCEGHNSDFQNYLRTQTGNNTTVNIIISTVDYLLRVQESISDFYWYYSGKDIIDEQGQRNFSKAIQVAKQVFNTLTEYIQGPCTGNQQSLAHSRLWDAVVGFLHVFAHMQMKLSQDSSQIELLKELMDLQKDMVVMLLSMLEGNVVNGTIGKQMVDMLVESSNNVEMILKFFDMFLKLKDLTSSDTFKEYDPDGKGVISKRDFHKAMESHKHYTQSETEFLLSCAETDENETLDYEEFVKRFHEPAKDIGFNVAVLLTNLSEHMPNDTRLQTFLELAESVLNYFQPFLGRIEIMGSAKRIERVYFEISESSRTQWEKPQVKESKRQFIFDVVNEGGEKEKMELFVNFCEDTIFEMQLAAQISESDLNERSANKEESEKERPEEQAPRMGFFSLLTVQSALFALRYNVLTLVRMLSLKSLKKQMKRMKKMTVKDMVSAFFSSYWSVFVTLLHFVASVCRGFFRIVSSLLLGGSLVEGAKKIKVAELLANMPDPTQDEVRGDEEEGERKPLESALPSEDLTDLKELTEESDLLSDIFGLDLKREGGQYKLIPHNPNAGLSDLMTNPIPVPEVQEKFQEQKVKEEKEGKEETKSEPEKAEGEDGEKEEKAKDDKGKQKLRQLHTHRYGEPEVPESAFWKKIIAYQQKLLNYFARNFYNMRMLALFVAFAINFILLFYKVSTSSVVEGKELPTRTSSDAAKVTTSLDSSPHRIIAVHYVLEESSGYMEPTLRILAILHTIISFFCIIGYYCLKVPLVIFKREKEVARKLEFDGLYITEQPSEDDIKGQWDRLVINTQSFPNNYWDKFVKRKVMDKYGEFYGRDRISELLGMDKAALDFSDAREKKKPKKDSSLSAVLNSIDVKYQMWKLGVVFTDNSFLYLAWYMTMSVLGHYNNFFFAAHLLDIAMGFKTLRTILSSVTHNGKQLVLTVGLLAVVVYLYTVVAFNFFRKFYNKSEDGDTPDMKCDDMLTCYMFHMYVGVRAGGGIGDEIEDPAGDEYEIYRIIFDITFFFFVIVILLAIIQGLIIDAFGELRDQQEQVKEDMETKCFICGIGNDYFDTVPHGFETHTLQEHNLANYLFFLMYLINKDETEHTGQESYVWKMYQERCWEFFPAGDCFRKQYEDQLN

Chain of FKBP12 (P62942 whole entry): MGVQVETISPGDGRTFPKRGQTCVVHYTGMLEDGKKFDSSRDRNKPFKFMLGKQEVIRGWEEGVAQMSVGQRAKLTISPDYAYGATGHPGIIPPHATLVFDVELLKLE

As for “FKBP12 (from UniProt P62942 1-108) (natural protein)”, the percent increase in the frequency of spontaneous Ca^2+ waves in permeabilised rat cardiac myocytes with 3 µM FKBP12 is 50%; the percent increase in the frequency of spontaneous Ca^2+ waves in permeabilised rat cardiac myocytes with 3 µM FKBP12, after pre-incubation with and in the continued presence of 200 nM FKBP12.6 came to 16.2%.
